Laboratory results taken from the supplement of paper PMC9112550, “Optimization of the antimicrobial peptide Bac7 by deep mutational scanning” (BMC Biology, 2022).

Test system: Escherichia coli TOP10
Assay: shrunken log2 fold change of peptide-encoding DNA abundance (4.5 h post-induction vs induction); higher = less antimicrobial activity (less host growth inhibition)
Details: time post-induction: 4.5 h; library: site-saturation at positions 5, 18, 19, 20
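Also: peptides expressed intracellularly from a pBAD plasmid library in pooled LB shake-flask culture, induced with 0.3% L-arabinose, DNA abundance read by NGS, three biological replicates, DESeq2 with apeglm shrinkage.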

Row | Sequence | shrunken log2 fold change
1 | RRIRKRPPRLPRPRPRPDIAPRP | 1
2 | RRIRDRPPRLPRPRPRPWHRPRP | -0.017
3 | RRIRTRPPRLPRPRPRPWAIPRP | -0.205
4 | RRIRCRPPRLPRPRPRPTEMPRP | -0.102
5 | RRIRNRPPRLPRPRPRPPEEPRP | -0.032
6 | RRIRHRPPRLPRPRPRPRKNPRP | 0.00268
7 | RRIRVRPPRLPRPRPRPVEEPRP | -0.143
8 | RRIRVRPPRLPRPRPRPSVCPRP | 0.0223
9 | RRIRTRPPRLPRPRPRPKHRPRP | -0.191
10 | RRIRPRPPRLPRPRPRPHRSPRP | 0.0256
11 | RRIRDRPPRLPRPRPRPFTFPRP | -0.167
12 | RRIRTRPPRLPRPRPRPLNDPRP | -0.192
13 | RRIRRRPPRLPRPRPRPRITPRP | 0.186
14 | RRIRDRPPRLPRPRPRPRYHPRP | -0.0202
15 | RRIRLRPPRLPRPRPRPYDCPRP | 0.0192
16 | RRIRIRPPRLPRPRPRPKRMPRP | -0.518
17 | RRIRQRPPRLPRPRPRPAFRPRP | 0.204
18 | RRIRMRPPRLPRPRPRPKGEPRP | 1.27
19 | RRIRDRPPRLPRPRPRPITSPRP | -0.00293
20 | RRIRQRPPRLPRPRPRPKKDPRP | -0.184
21 | RRIRPRPPRLPRPRPRPPIFPRP | -0.246
22 | RRIRNRPPRLPRPRPRPWKFPRP | -0.0447
23 | RRIRERPPRLPRPRPRPTVDPRP | -0.0352
24 | RRIRCRPPRLPRPRPRPVPVPRP | 0.0927
25 | RRIRYRPPRLPRPRPRPEHTPRP | -0.303

Row | Sequence | shrunken log2 fold change
26 | RRIRDRPPRLPRPRPRPPDAPRP | 0.65
27 | RRIRNRPPRLPRPRPRPYNAPRP | -1.54
28 | RRIRTRPPRLPRPRPRPDSGPRP | -0.0764
29 | RRIRPRPPRLPRPRPRPDGDPRP | 0.152
30 | RRIRFRPPRLPRPRPRPENGPRP | -0.166
31 | RRIRDRPPRLPRPRPRPHMHPRP | -0.0478
32 | RRIRVRPPRLPRPRPRPWDGPRP | -0.00294
33 | RRIRIRPPRLPRPRPRPSEHPRP | -0.36
34 | RRIRERPPRLPRPRPRPQQWPRP | 0.19
35 | RRIRNRPPRLPRPRPRPFYKPRP | -0.575
36 | RRIRSRPPRLPRPRPRPIETPRP | -0.29
37 | RRIRCRPPRLPRPRPRPDTHPRP | -0.716
38 | RRIRKRPPRLPRPRPRPGRKPRP | 0.0872
39 | RRIRHRPPRLPRPRPRPKWQPRP | 0.0671
40 | RRIRTRPPRLPRPRPRPNRVPRP | -0.0472
41 | RRIRDRPPRLPRPRPRPFIVPRP | -0.193
42 | RRIRERPPRLPRPRPRPPVMPRP | 0.0499
43 | RRIRMRPPRLPRPRPRPFDQPRP | 0.00237
44 | RRIRTRPPRLPRPRPRPAPWPRP | 0.254
45 | RRIRRRPPRLPRPRPRPVWRPRP | 0.436
46 | RRIRTRPPRLPRPRPRPCWQPRP | 0.0902
47 | RRIRKRPPRLPRPRPRPRFMPRP | 0.102
48 | RRIRKRPPRLPRPRPRPRTCPRP | -0.202
49 | RRIRGRPPRLPRPRPRPFFAPRP | 0.747
50 | RRIRDRPPRLPRPRPRPTYAPRP | 0.0176

Row | Sequence | shrunken log2 fold change
51 | RRIRSRPPRLPRPRPRPDREPRP | 0.154
52 | RRIRYRPPRLPRPRPRPSIKPRP | -0.952
53 | RRIRQRPPRLPRPRPRPFVFPRP | -0.273
54 | RRIRCRPPRLPRPRPRPRQDPRP | -0.0742
55 | RRIRIRPPRLPRPRPRPNKWPRP | -0.0869
56 | RRIRTRPPRLPRPRPRPAETPRP | 0.139
57 | RRIRMRPPRLPRPRPRPEHDPRP | 1.62
58 | RRIRERPPRLPRPRPRPTRYPRP | -0.154
59 | RRIRMRPPRLPRPRPRPEPAPRP | 3.51
60 | RRIRERPPRLPRPRPRPEFDPRP | 0.039
61 | RRIRCRPPRLPRPRPRPTNLPRP | -0.656
62 | RRIRERPPRLPRPRPRPRFNPRP | -0.453
63 | RRIRERPPRLPRPRPRPHYTPRP | -0.615
64 | RRIRGRPPRLPRPRPRPMMCPRP | 0.0367
65 | RRIRMRPPRLPRPRPRPEQGPRP | 0.493
66 | RRIRERPPRLPRPRPRPIMTPRP | -0.714
67 | RRIRARPPRLPRPRPRPCIWPRP | 0.118
68 | RRIRGRPPRLPRPRPRPLWKPRP | 0.819
69 | RRIRGRPPRLPRPRPRPHDFPRP | -0.0983
70 | RRIRDRPPRLPRPRPRPGIDPRP | -0.245
71 | RRIRSRPPRLPRPRPRPNLGPRP | -0.0959
72 | RRIRRRPPRLPRPRPRPWWDPRP | -0.0777
73 | RRIRFRPPRLPRPRPRPNGLPRP | -0.0551
74 | RRIRWRPPRLPRPRPRPMMVPRP | 0.0168
75 | RRIRKRPPRLPRPRPRPEIDPRP | 2.84

Row | Sequence | shrunken log2 fold change
76 | RRIRPRPPRLPRPRPRPSATPRP | 0.195
77 | RRIRPRPPRLPRPRPRPQWKPRP | 0.0366
78 | RRIRNRPPRLPRPRPRPVWLPRP | 0.0895
79 | RRIRNRPPRLPRPRPRPHEYPRP | -0.048
80 | RRIRTRPPRLPRPRPRPGQLPRP | 0.226
81 | RRIRSRPPRLPRPRPRPGKMPRP | -0.0839
82 | RRIRDRPPRLPRPRPRPWKMPRP | 0.0664
83 | RRIRFRPPRLPRPRPRPFGGPRP | -0.0524
84 | RRIRCRPPRLPRPRPRPIRPPRP | -0.0704
85 | RRIRCRPPRLPRPRPRPNLDPRP | -0.478
86 | RRIRPRPPRLPRPRPRPYIWPRP | -0.267
87 | RRIRVRPPRLPRPRPRPNCPPRP | -0.0515
88 | RRIRVRPPRLPRPRPRPFTVPRP | -0.105
89 | RRIRIRPPRLPRPRPRPARLPRP | -0.0547
90 | RRIRSRPPRLPRPRPRPKFAPRP | 0.0751
91 | RRIRCRPPRLPRPRPRPFWWPRP | 0.925
92 | RRIRDRPPRLPRPRPRPFGHPRP | -0.138
93 | RRIRDRPPRLPRPRPRPDEHPRP | 0.0279
94 | RRIRIRPPRLPRPRPRPQDYPRP | -0.162
95 | RRIRNRPPRLPRPRPRPQVWPRP | 0.0895
96 | RRIRSRPPRLPRPRPRPVYTPRP | -0.105
97 | RRIRIRPPRLPRPRPRPMMVPRP | -0.00145
98 | RRIRTRPPRLPRPRPRPIRTPRP | 0.063
99 | RRIRVRPPRLPRPRPRPQMWPRP | 0.0478
100 | RRIRFRPPRLPRPRPRPYHEPRP | -0.26

Row | Sequence | shrunken log2 fold change
101 | RRIRFRPPRLPRPRPRPNIIPRP | -0.706
102 | RRIRVRPPRLPRPRPRPRGSPRP | 0.527
103 | RRIRCRPPRLPRPRPRPLVWPRP | 0.207
104 | RRIRVRPPRLPRPRPRPMYKPRP | -0.608
105 | RRIRWRPPRLPRPRPRPWWLPRP | 0.162
106 | RRIRNRPPRLPRPRPRPVEHPRP | -0.123
107 | RRIRLRPPRLPRPRPRPQWFPRP | -0.0962
108 | RRIRCRPPRLPRPRPRPLHWPRP | 0.467
109 | RRIRTRPPRLPRPRPRPRKAPRP | 0.326
110 | RRIRNRPPRLPRPRPRPARDPRP | 0.27
111 | RRIRSRPPRLPRPRPRPKLNPRP | -0.103
112 | RRIRIRPPRLPRPRPRPPYSPRP | 0.0677
113 | RRIRNRPPRLPRPRPRPWTHPRP | -0.0174
114 | RRIRKRPPRLPRPRPRPQVTPRP | -0.0535
115 | RRIRSRPPRLPRPRPRPHEKPRP | 0.0101
116 | RRIRTRPPRLPRPRPRPPCGPRP | 0.4
117 | RRIRPRPPRLPRPRPRPIREPRP | 0.31
118 | RRIRSRPPRLPRPRPRPMWYPRP | -0.0284
119 | RRIRLRPPRLPRPRPRPERFPRP | 0.219
120 | RRIRNRPPRLPRPRPRPHFHPRP | -0.529
121 | RRIRMRPPRLPRPRPRPFIRPRP | -0.47
122 | RRIRARPPRLPRPRPRPLTSPRP | 0.209
123 | RRIRSRPPRLPRPRPRPNYYPRP | -0.822
124 | RRIRNRPPRLPRPRPRPPFAPRP | 0.201
125 | RRIRQRPPRLPRPRPRPLKRPRP | -0.0432

Row | Sequence | shrunken log2 fold change
126 | RRIRKRPPRLPRPRPRPAYHPRP | -0.144
127 | RRIRARPPRLPRPRPRPEHIPRP | -0.185
128 | RRIRGRPPRLPRPRPRPEANPRP | 0.632
129 | RRIRVRPPRLPRPRPRPDHKPRP | -0.0198
130 | RRIRKRPPRLPRPRPRPFLGPRP | 0.0561
131 | RRIRFRPPRLPRPRPRPMQEPRP | 0.0233
132 | RRIRKRPPRLPRPRPRPWKNPRP | -0.00973
133 | RRIRVRPPRLPRPRPRPMTVPRP | 0.116
134 | RRIRARPPRLPRPRPRPAGMPRP | 0.432
135 | RRIRIRPPRLPRPRPRPSNNPRP | -0.656
136 | RRIRGRPPRLPRPRPRPPGEPRP | 1.14
137 | RRIRVRPPRLPRPRPRPDMQPRP | -0.081
138 | RRIRWRPPRLPRPRPRPYIIPRP | -1.11
139 | RRIRKRPPRLPRPRPRPLGQPRP | 0.991
140 | RRIRGRPPRLPRPRPRPGAQPRP | 1.19
141 | RRIRKRPPRLPRPRPRPGTRPRP | 0.165
142 | RRIRMRPPRLPRPRPRPELYPRP | 0.0658
143 | RRIRYRPPRLPRPRPRPQFTPRP | -0.308
144 | RRIRSRPPRLPRPRPRPDFKPRP | -0.0946
145 | RRIRQRPPRLPRPRPRPKDSPRP | -0.135
146 | RRIRERPPRLPRPRPRPRNNPRP | -0.441
147 | RRIRLRPPRLPRPRPRPDHFPRP | 0.0304
148 | RRIRHRPPRLPRPRPRPCDSPRP | -0.00145
149 | RRIRGRPPRLPRPRPRPVYEPRP | 0.271
150 | RRIRKRPPRLPRPRPRPQHRPRP | 0.148
